{
  "source": "patent US20160015814A1",
  "about": "“Fast-acting insulin formulation comprising a substituted anionic compound and a polyanionic compound” (ADOCIA, priority 2014, published 2016)",
  "key": {"human insulin": {"target": "human insulin (Homo sapiens, UniProt P01308)", "sequence (P01308 25-54 limits assumed)": "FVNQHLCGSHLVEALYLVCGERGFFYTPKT", "sequence (P01308 90-110 limits assumed)": "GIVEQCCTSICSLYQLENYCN", "assay": "Test of dissolution of human insulin at its isoelectric point", "format": "physicochemical", "conditions": "human insulin 100 IU/mL alone, pH 5.3", "excerpt": "If an interaction exists between human insulin and the substituted anionic compound, it is then possible to dissolve the human insulin at its isoelectric point. […] The appearance of the solution is documented."}, "humans": {"system": "humans", "conditions": "injected subcutaneously, diabetic patients; cited from earlier work"}},
  "data": [
    {"substance": "Human insulin: Human insulin, tested at 100 IU/mL alone in the dissolution test; isoelectric point 5.3", "values": [
      {"measurement": "Visual appearance", "setting": "human insulin", "value": "Turbid"},
      {"measurement": "time to hypoglycemiant effect", "setting": "humans", "value": 60, "unit": "min"}
    ]}
  ]
}
